± gives the uncertainty stated by the source.
B1: PDZ and LIM domain protein 2, residues 284 to 339; numbered along this chain, Q96JY6 (parent)
chain: HTCEKCSTSIANQAVRIQEGRYRHPGCYTCADCGLNLKMRGHFWVGDELYCEKHAR

Variants of: B1
Test: abundance fitness (aPCA) (normalised: wild type 0, dead -1); higher = more abundant; growth selection in yeast, the domain comes from the species named
Conditions: Homo sapiens

R40T and R40P are within error of each other in abundance fitness: -0.009 ± 0.1 for the first, 0.14 ± 0.13 for the second.

R40N and R40V are within error of each other in abundance fitness: 0.21 ± 0.13 for the first, 0.092 ± 0.063 for the second.

R40E and P25K are within error of each other in abundance fitness: 0.066 ± 0.071 for the first, -0.003 ± 0.092 for the second.

Compared with P25E, P25W is lower in abundance fitness: 0.402 ± 0.082 for the first, -0.807 ± 0.17 for the second.

Y22Q and Y22F are within error of each other in abundance fitness: -0.02 ± 0.076 for the first, 0.108 ± 0.076 for the second.

Y22H and E19M are within error of each other in abundance fitness: -0.398 ± 0.22 for the first, -0.163 ± 0.13 for the second.

First: E19F
Second: E19P
The abundance fitness of the first is lower: -0.672 ± 0.18 for the first, -0.211 ± 0.11 for the second.

First: E19N
Second: E19K
The abundance fitness of the first is lower: -0.453 ± 0.18 for the first, 0.01 ± 0.07 for the second.

E19C and C30G are within error of each other in abundance fitness: -0.447 ± 0.1 for the first, -0.618 ± 0.12 for the second.

Compared with C30P, C30L is lower in abundance fitness: -0.671 ± 0.17 for the first, -1.03 ± 0.14 for the second.

Going from C30K to T29L, the abundance fitness rises from -1.13 ± 0.38 to -0.117 ± 0.081.

T29G and T29N are within error of each other in abundance fitness: -0.198 ± 0.067 for the first, -0.177 ± 0.15 for the second.

Going from T29D to T29M, the abundance fitness falls from 0.216 ± 0.14 to -0.354 ± 0.16.

T29A and Y50F are within error of each other in abundance fitness: -0.103 ± 0.11 for the first, -0.001 ± 0.15 for the second.

Going from Y50G to Y50W, the abundance fitness rises from -0.501 ± 0.069 to -0.161 ± 0.076.

Compared with Y50M, Y50E is lower in abundance fitness: 0.077 ± 0.093 for the first, -0.673 ± 0.18 for the second.

Y50I and Y50Q are within error of each other in abundance fitness: -0.194 ± 0.18 for the first, -0.256 ± 0.069 for the second.

First: Y50K
Second: G41I
The abundance fitness of the first is higher: 0.04 ± 0.078 for the first, -0.673 ± 0.11 for the second.

Going from G41A to G41L, the abundance fitness falls from -0.139 ± 0.058 to -0.437 ± 0.061.

G41Q and G41N are within error of each other in abundance fitness: -0.076 ± 0.086 for the first, -0.146 ± 0.22 for the second.

G41Y and G41S are within error of each other in abundance fitness: -0.395 ± 0.2 for the first, -0.436 ± 0.12 for the second.

N36H and N36K are within error of each other in abundance fitness: -0.275 ± 0.18 for the first, -0.478 ± 0.12 for the second.

N36A and N36S are within error of each other in abundance fitness: -0.104 ± 0.06 for the first, -0.038 ± 0.077 for the second.

N36P and N36E are within error of each other in abundance fitness: 0.108 ± 0.13 for the first, 0.099 ± 0.081 for the second.

R21K and R21F are within error of each other in abundance fitness: 0.002 ± 0.077 for the first, -0.01 ± 0.14 for the second.

R21E and R21I are within error of each other in abundance fitness: -0.286 ± 0.14 for the first, -0.046 ± 0.14 for the second.

R21L and H1A are within error of each other in abundance fitness: -0.01 ± 0.067 for the first, -0.24 ± 0.27 for the second.

H1D and F43L are within error of each other in abundance fitness: -0.317 ± 0.48 for the first, -0.048 ± 0.066 for the second.

F43M and F43Y are within error of each other in abundance fitness: -0.208 ± 0.13 for the first, -0.145 ± 0.11 for the second.

First: F43V
Second: F43A
The abundance fitness of the first is lower: -0.423 ± 0.093 for the first, -0.189 ± 0.088 for the second.

F43N and F43I are within error of each other in abundance fitness: 0.071 ± 0.19 for the first, -0.084 ± 0.17 for the second.

First: F43T
Second: G34C
The abundance fitness of the first is higher: -0.04 ± 0.085 for the first, -0.413 ± 0.1 for the second.

G34A and G34T are within error of each other in abundance fitness: -0.09 ± 0.09 for the first, -0.177 ± 0.1 for the second.

Compared with G34L, G34P is lower in abundance fitness: -0.165 ± 0.064 for the first, -0.356 ± 0.073 for the second.

Compared with G34Y, G34R is higher in abundance fitness: -0.331 ± 0.13 for the first, -0.064 ± 0.084 for the second.

Going from G34W to D47I, the abundance fitness rises from -0.799 ± 0.14 to -0.135 ± 0.081.

D47L and D47S are within error of each other in abundance fitness: -0.026 ± 0.073 for the first, 0.004 ± 0.077 for the second.

D47C and D47R are within error of each other in abundance fitness: -0.002 ± 0.11 for the first, 0.008 ± 0.061 for the second.

D47H and D47T are within error of each other in abundance fitness: -0.136 ± 0.098 for the first, -0.047 ± 0.068 for the second.

Going from T2K to T2M, the abundance fitness falls from 0.003 ± 0.08 to -0.51 ± 0.21.

First: T2H
Second: T2C
The abundance fitness of the first is higher: 0.144 ± 0.17 for the first, -0.323 ± 0.16 for the second.

First: T2L
Second: T2Q
The abundance fitness of the first is lower: -0.834 ± 0.12 for the first, -0.339 ± 0.08 for the second.

Compared with T2G, A55S is higher in abundance fitness: -0.899 ± 0.13 for the first, 0.148 ± 0.1 for the second.

A55M and A55D are within error of each other in abundance fitness: -0.066 ± 0.091 for the first, -0.097 ± 0.11 for the second.

First: A55C
Second: A55F
The abundance fitness of the first is lower: -0.108 ± 0.1 for the first, 0.12 ± 0.081 for the second.

A55E and A55G are within error of each other in abundance fitness: -0.309 ± 0.16 for the first, -0.079 ± 0.084 for the second.

Compared with A55P, V45I is higher in abundance fitness: -0.414 ± 0.22 for the first, 0.29 ± 0.12 for the second.

Going from V45M to C51W, the abundance fitness falls from -0.057 ± 0.07 to -1.05 ± 0.15.

C51H and C51I are within error of each other in abundance fitness: -0.827 ± 0.18 for the first, -0.523 ± 0.37 for the second.

Compared with C51E, K38G is higher in abundance fitness: -0.219 ± 0.16 for the first, 0.103 ± 0.056 for the second.

Compared with K38E, K38Y is lower in abundance fitness: 0.311 ± 0.071 for the first, -0.037 ± 0.14 for the second.

K38F and K38W are within error of each other in abundance fitness: -0.495 ± 0.17 for the first, -0.445 ± 0.13 for the second.

First: K38R
Second: K38I
The abundance fitness of the first is higher: -0.366 ± 0.076 for the first, -0.703 ± 0.22 for the second.

K38M and Q13M are within error of each other in abundance fitness: -0.08 ± 0.098 for the first, -0.223 ± 0.1 for the second.

Going from Q13H to Q13T, the abundance fitness rises from -0.767 ± 0.26 to -0.11 ± 0.097.

First: Q13Y
Second: G26M
The abundance fitness of the first is lower: -0.775 ± 0.35 for the first, 0.037 ± 0.092 for the second.

G26F and G26T are within error of each other in abundance fitness: 0.19 ± 0.091 for the first, 0.158 ± 0.08 for the second.

Compared with N12C, N12R is lower in abundance fitness: -0.135 ± 0.15 for the first, -0.73 ± 0.097 for the second.

Going from N12M to N12D, the abundance fitness rises from -0.123 ± 0.11 to 0.595 ± 0.1.

N12F and N12Y are within error of each other in abundance fitness: -0.494 ± 0.25 for the first, -0.622 ± 0.092 for the second.

Going from C27I to C27A, the abundance fitness rises from -0.904 ± 0.28 to -0.428 ± 0.087.

C27V and C27R are within error of each other in abundance fitness: -0.661 ± 0.12 for the first, -0.838 ± 0.12 for the second.

C27S and C27Y are within error of each other in abundance fitness: -0.598 ± 0.11 for the first, -0.885 ± 0.22 for the second.

Compared with R16F, R16D is lower in abundance fitness: 0.215 ± 0.11 for the first, -0.091 ± 0.1 for the second.

R16A and R16H are within error of each other in abundance fitness: 0.2 ± 0.083 for the first, 0.004 ± 0.17 for the second.

Going from L35P to L35R, the abundance fitness rises from -0.518 ± 0.14 to -0.187 ± 0.074.

L35D and L35I are within error of each other in abundance fitness: 0.202 ± 0.087 for the first, 0.05 ± 0.082 for the second.

L35Y and L35F are within error of each other in abundance fitness: 0.01 ± 0.12 for the first, 0.178 ± 0.13 for the second.

First: V15E
Second: V15L
The abundance fitness of the first is higher: 0.272 ± 0.13 for the first, -0.248 ± 0.072 for the second.

V15P and V15W are within error of each other in abundance fitness: -0.654 ± 0.14 for the first, -0.875 ± 0.17 for the second.

First: V15R
Second: V15G
The abundance fitness of the first is lower: -0.596 ± 0.12 for the first, -0.33 ± 0.06 for the second.

Going from H24C to H24I, the abundance fitness falls from 0.309 ± 0.063 to -0.973 ± 0.36.

H24P and H24E are within error of each other in abundance fitness: -0.582 ± 0.086 for the first, -0.439 ± 0.14 for the second.

Compared with H24W, K53H is higher in abundance fitness: -0.788 ± 0.17 for the first, 0.377 ± 0.14 for the second.

K53N and K53T are within error of each other in abundance fitness: -0.056 ± 0.094 for the first, 0.037 ± 0.12 for the second.

Compared with K53Q, K53G is lower in abundance fitness: 0.028 ± 0.075 for the first, -0.158 ± 0.081 for the second.

K53W and T8K are within error of each other in abundance fitness: 0.164 ± 0.11 for the first, 0.255 ± 0.066 for the second.

Compared with T8Q, T8E is higher in abundance fitness: 0.056 ± 0.074 for the first, 0.387 ± 0.1 for the second.

Compared with T8Y, T8I is lower in abundance fitness: 0.119 ± 0.13 for the first, -0.361 ± 0.15 for the second.

Compared with T8G, T8F is lower in abundance fitness: 0.153 ± 0.064 for the first, -0.111 ± 0.15 for the second.

Compared with T8H, C6V is lower in abundance fitness: 0.173 ± 0.095 for the first, -0.282 ± 0.09 for the second.

C6I and C6Q are within error of each other in abundance fitness: -0.135 ± 0.32 for the first, -0.199 ± 0.16 for the second.

C6N and C6K are within error of each other in abundance fitness: -0.508 ± 0.17 for the first, -0.264 ± 0.19 for the second.

C6H showed an abundance fitness of -0.535 ± 0.19.
